Earlier results in patent publication US20030219387A1, “Local delivery of agents for disruption and inhibition of bacterial biofilm for treatment of periodontal disease” (priority 2000, published 2003).

Test system: binding of cells
Settings: iron-saturated form

B1: Lactoferrin: iron-binding salivary protein (protein, UniProt P02788 20-710, looked up)
Lactotransferrin: GRRRSVQWCAVSQPEATKCFQWQRNMRKVRGPPVSCIKRDSPIQCIQAIAENRADAVTLDGGFIYEAGLAPYKLRPVAAEVYGTERQPRTHYYAVAVVKKGGSFQLNELQGLKSCHTGLRRTAGWNVPIGTLRPFLNWTGPPEPIEAAVARFFSASCVPGADKGQFPNLCRLCAGTGENKCAFSSQEPYFSYSGAFKCLRDGAGDVAFIRESTVFEDLSDEAERDEYELLCPDNTRKPVDKFKDCHLARVPSHAVVARSVNGKEDAIWNLLRQAQEKFGKDKSPKFQLFGSPSGQKDLLFKDSAIGFSRVPPRIDSGLYLGSGYFTAIQNLRKSEEEVAARRARVVWCAVGEQELRKCNQWSGLSEGSVTCSSASTTEDCIALVLKGEADAMSLDGGYVYTAGKCGLVPVLAENYKSQQSSDPDPNCVDRPVEGYLAVAVVRRSDTSLTWNSVKGKKSCHTAVDRTAGWNIPMGLLFNQTGSCKFDEYFSQSCAPGSDPRSNLCALCIGDEQGENKCVPNSNERYYGYTGAFRCLAENAGDVAFVKDVTVLQNTDGNNNEAWAKDLKLADFALLCLDGKRKPVTEARSCHLAMAPNHAVVSRMDKVERLKQVLLHQQAKFGRNGSDCPDKFCLFQSETKNLLFNDNTECLARLHGKTTYEKYLGPQYVAGITNLKKCSTSPLLEACEFLRK
modifications: iron saturated
binding of cells: reduce binding of cells
